Test results: the supplement of paper PMC12764529
± gives the half width of the 95% confidence interval.

Experiments:
[1] = folding stability dG unfold (combined trypsin and chymotrypsin); higher = more stable
In short: (§1)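 Digests were run with trypsin and chymotrypsin at 11 concentrations in threefold dilutions, plus a no-protease condition, on designed mini-proteins in a PA-tagged cDNA display construct. The mini-proteins were under 80 residues, had no cysteine, and were kept only when AlphaFold2 dimer inter-PAE was above 15. After sequencing, Bayesian fitting of the counts gave K50, from which unfolding free energy was derived against a sequence-predicted unfolded-state K50 and a shared folded-state K50, per protease or combined.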

[2] = folding stability dG unfold from chymotrypsin proteolysis; higher = more stable
In short: as §1

[3] = folding stability dG unfold from trypsin proteolysis; higher = more stable
In short: as §1

Sequence | folding stability dG unfold [1] [kcal/mol] | folding stability dG unfold [2] [kcal/mol] | folding stability dG unfold [3] [kcal/mol]
SAGGSAGGSLHPSQPLLVTVEVEVDPETGTVRLRVSVWVPGPRERLLERELEVPLHSLPEGALSAGGSAGGS [r12_145_TrMRF] | 2.25 ± 0.091 | 2.49 ± 0.015 | 1.69 ± 0.039
SGLVEAIAKALGAESVTPHPDGTFSLRLKDGSYLKIKVEVLEVRERPDGSPEFIVKIEIEVFEGGKPEDESA [r9_648_TrMRF] | > 6 | 5.94 ± 0.065 | 4.56 ± 0.14
SMITLELTDPATGAKYTLTIDPSTGKAKVTRTPPTGPPVSGTGTIEGNTLTITLYEPSGKPLATLTLPLPSA [r9_665_JUSTAS] | 5.6 ± 0.13 | 5.53 ± 0.1 | 3.89 ± 0.11
SAGGSDKLYIRNPDHTIEIDEVKEPPDGEKYVRIRHEPPDGKEKEHEFPPDELADKFGLPPDNIEISAGGSA [r2_262_TrROS] | -0.101 ± 0.56 | -0.217 ± 0.79 | 0.32 ± 0.35
SAGGMTIEKEDGKYRITITINGKTYTFTIPKELENKTEEEIAAELAAELAEKFGLKEITEIKIEKVPSAGGS [r8_402_TrROS_Hall] | 3.14 ± 0.1 | 3.559 ± 0.025 | 2.38 ± 0.096
SAGGDEDDWRPIEIPLYIRNPENGHLFQITPMKIWVPDNLTIEMEMEMFDPDDGKVEKHKMTFTIPAKSAGG [r13_206_TrROS] | 1.64 ± 0.22 | 2.09 ± 0.21 | 1.2 ± 0.088
SKKTITITIEDKETGLKVEITINEDGTITIKVYDKDGKLVAEVKAKIKLVKDKDGKIRLVIEEIEIKVKPSA [r9_434_TrROS_Hall] | 3.61 ± 0.44 | 3.04 ± 0.13 | 3.87 ± 0.46
SAGVVVERTVTRTVPKDSATKEKIIEEIKASMPGMKVKEVEVLSETPLPDGSIVVTVKLTIERPPDVLESAG [r5_682_JUSTAS] | 2.98 ± 0.11 | 2.88 ± 0.092 | 3.23 ± 0.11
SAGGSAGGSAGTITTPTAEFTVTLDPNGTYTVTYQNTTTTVPVGAPFTLPGGEPLTVVPASAGGSAGGSAGG [r11_147_JUSTAS] | 0.601 ± 0.13 | 0.931 ± 0.11 | 0.0786 ± 0.069
SAGMSITIESDTNAPPDLPDIGEEEKLALAEELKEKALADPRYPDEEVVIVRPFKTPGGARWTITVVVSAGG [r19_132_JUSTAS] | 1.32 ± 0.17 | 1.29 ± 0.24 | 1.31 ± 0.042
SAGMMKVRIKIEVTRVEYDEETGELKEETRTIEIPIEAESEEEAEELAKKLAEELPEEEVKIVEIEPLSAGG [r19_209_TrROS_Hall] | 1.22 ± 0.22 | 1.42 ± 0.11 | 1.1 ± 0.096
SAGGSAGGSMKVEITKVEPETGPNGRPYYRVEVKVIGEDGSPYTFTFYFEKPSDIENAKISLDSAGGSAGGS [r20_130_TrMRF] | 3.5 ± 0.21 | 3.91 ± 0.07 | 2.67 ± 0.19
SAGGSAGGSTITITTVIEKDGELYVIEAKIEVTEVYYDKKTKKKVKVKVKIEIKIEKVPLEDLSAGGSAGGS [r12_809_TrROS_Hall] | 3.07 ± 0.45 | 3.28 ± 0.23 | 2.96 ± 0.56
SAGGSAGGSGGMMKVIVSVSPGEEAVEKVNKLVNETDLPPIEVIIIPHSPDDPIVVAILLLLLSAGGSAGGS [r12_649_JUSTAS] | 2.73 ± 0.057 | 3.12 ± 0.032 | 2.33 ± 0.053
SIKFPDGSEIEFEWSEDKEYEVELPNGPIVKIKKVIKEGESWIVEVEFEDGSKVILEVDPNNPEEVQKAIAS [r1_66_TrMRF] | 2.06 ± 0.1 | 2.19 ± 0.072 | 1.77 ± 0.086
SAGGMPEGMVVLRIRVRVEKVEVRRDPAVPGRVSRRVEVREVEIELVVDSREALEALRELGFEIEEVSAGGS [r8_482_TrROS_Hall] | 4.22 ± 0.08 | 4.43 ± 0.11 | 3.79 ± 0.099
SAGGLPELLKALGLPVTSVRSVPVLLPGGRPALVTFVEFEDPEGERYRLVVVRLPNGEVLVRVERLDPSAGG [r13_818_TrMRF] | 4.53 ± 0.1 | 4.9 ± 0.12 | 3.39 ± 0.15
SAGGSAGGSAGKPITADEVAERVARRLRELFGPDYDINVKVVKVLPGDYVLVDVEITGDLSAGGSAGGSAGG [r11_153_TrMRF] | 2.28 ± 0.044 | 2.287 ± 0.021 | 2.27 ± 0.032
SAGGSAGGSGSFSLSFPDADGVSVTLDPNTGIVTMSFNRPDANYTITLERYPDSIVVKEIKLPSAGGSAGGS [r20_60_JUSTAS] | 1.32 ± 0.062 | 1.48 ± 0.1 | 1.05 ± 0.026
SAGGSAGGSMKTITVTFSSEEEAKKAAEEILKKEGFDEKIKEVTLTYSKEGNVLTGTVTVKTPSAGGSAGGS [r12_7_JUSTAS] | 0.945 ± 0.089 | 1.2 ± 0.046 | 0.449 ± 0.042
SAGGLEIDTSDGNVKVTKVSTKTTVEKDPTNPDRYRIITSKEIKTEPVKPPDVKEGPPIGLNNPELLSAGGS [r16_395_JUSTAS] | 0.165 ± 0.49 | 0.418 ± 0.47 | 0.475 ± 0.2
